Measurements from the nanobody polyreactivity screen of Harvey et al. (2022).

Experiment: yeast display, Sf9 membrane polyspecificity reagent, FACS + sequencing; frameworks hold sequencing errors
In short: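 After 36–48 hours of galactose induction, yeast (Saccharomyces cerevisiae BJ5465) displaying a synthetic nanobody library were stained at 4 °C for 1 hour with 10% biotinylated, detergent-solubilized Sf9 membrane reagent. Streptavidin microbeads enriched the stained cells before FACS sorting into low and high (top ~1%) gates on anti-HA and streptavidin fluorescence. Each clone's polyreactivity label reflects its gate of origin.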

Sequence | polyreactivity (PSR sort gate)
QVQLVESGGGLVQAGGSLRLSCAASGLTFSKYVMGWYRQAPGKERELVAGISRSSGSTYYADSVKGRFTISRDNAKNTVYLQMNSLKPEDTAVYYCAARARRKYDYWGQGTQVTVSS | high polyreactivity
QVQLVESGGGLVQAGGSLRLSCAASGLTFSPYAKGWYRQAPGKERELVASITNGGRTYYADSVKGRFTISRDNAKNTVYLQMNSLKPEDTAVYYCNAAYFGWFNTYNYWGQGTQVTVSS | high polyreactivity
QVQLVESGGGLVQAGGSLRLSCAASGLTFSPYAMGWYRQAPGKERELVATITIGGSTKYADSVKGRFTISRDNAKNTVYLQMNSLKPEDPAVYYCAVRSGYVTRRYDYWGQGTQVTVSS | low polyreactivity
QVQLVESGGGLVQAGGSLRLSCAASGLTFSRNAMGWYRQAPGKERELVAAINWRGGRTYYADSVKGRFIISRDNAKNTVYLQMNSLKPEDTAVYYCAADPANRCMYYWGQGTQVTVSS | high polyreactivity
QVQLVESGGGLVQAGGSLRLSCAASGLTFSRNGMGWYRQAAGKERELVAAISTSGDSTDYADSVKGRFTISRDYAKNTVYLQMNSLKPEDTAVYYCNRDFSLVVHYNFDYWGQGTQVTVSS | low polyreactivity
QVQLVESGGGLVQAGGSLRLSCAASGLTFSRYAMGWYRQAPGKERELVAAIKGRGGSTYYADSVKGRFTISRDNAKNTVYLQMNSLKPEDTAVYYCAATTRGSYSGNRPAYYWGQCTQVTVSS | high polyreactivity
QVQLVESGGGLVQAGGSLRLSCAASGLTFSSYAMGWYRQAPGKERELVAVISRTGGSTYYADSVKGRFTISRDNAKNTVYLQMNSLKPEDTAVYYCAARSYNGWRYDSWGQGTQVTVSS | high polyreactivity
QVQLVESGGGLVQAGGSLRLSCAASGLTFSSYTMGWYRQAHGKERELVAAINWNGGDTYYADSVKGRFTISRDNAKNTVYLQMHSLKPEDTAVYYCNADYPYFYRFTAEYDYCGQGTQVTVSS | low polyreactivity
QVQLVESGGGLVQAGGSLRLSCAASGLTFSVYAMGWYRQAPGKERELVAAISGSGGSTYYADSVKGRFTISRDNAKNTVYLQMNSLKPEDTAVYYCAARYDVHYDGMDYWGLGTQVTVSS | low polyreactivity
QVQLVESGGGLVQAGGSLRLSCAASGLTFSYYAMGWYRPAPGKERELVAAITSSGGNTYYADSVKGRFTISRDYAKNTVYLQMNSLKPEDTAGDSCTARRYLRGYGYGYWGQGTQVTVSS | high polyreactivity
QVQLVESGGGLVQAGGSLRLSCAASGLTFSYYAMGWYRQAPGKERELVAAISSSGGSTYYADSVKGRFTISRDYAKNTVYLQMTSLKPEDTAVYYCATAASPVRKRYDYWGQGTQVTVSS | high polyreactivity
QVQLVESGGGLVQAGGSLRLSCAASGLTFSYYAMGWYRQAPGKERELVAAISWSGGITYYADSVKGRFTISRDNAKNTVYLQMNSLKPEDTAVYYCAADGYPTLYDYWGQGTQVTVSS | high polyreactivity
QVQLVESGGGLVQAGGSLRLSCAASGLTFSYYAMGWYRQAPGKERELVAAITRSGTRTYYADSVKGRFTISRDNAKNTVYLQMNSLKPVDTAVYYCARYLRGDFQQGEHWGQGTQVTVSS | high polyreactivity
QVQLVESGGGLVQAGGSLRLSCAASGLTFTFYTMGWYRQAPGKERELVAAISIGGSTYYADSVKGRFTISRDNAKNTVYLQMNSLKQEDTAVYYCAAGYSRYYGHWGYYYWGQGTQVTVSS | high polyreactivity
QVQLVESGGGLVQAGGSLRLSCAASGLTFTSYAMGWYRQAPGKERELVAAIDWSGGRTYYADSVKGRFTISRDNAKNTVYLQMNSLKPEDTAVYYCAAYSRNRALRFNYWGQGTQVTVSS | high polyreactivity
QVQLVESGGGLVQAGGSLRLSCAASGLTFTYYAMGWNRQAPGKQRELVAAISSSGSDTYYADSVKGRFTISRDNAKNTVYLLMNSLKPEDTAVYYCAAVLTALSPDFEYEYWGQGTQVTVSS | low polyreactivity
QVQLVESGGGLVQAGGSLRLSCAASGLTFTYYAMGWYRQAPGKERELVAAITYSGDSKYYADSVKGLFTISRDNAKNTVYLQMNSLKPEDTAVYYCNAEQYLYYILGNYDYWGQGTQVTVSS | low polyreactivity
QVQLVESGGGLVQAGGSLRLSCAASGLTFVDNALGWYRQAPGKERELVAAISYNGGSTYYADSVKGRFTISRDNAKNTVYLQMNSLKPEDTAVYYCAADISVGRYGDMDYWGQGTQVTVSS | low polyreactivity
QVQLVESGGGLVQAGGSLRLSCAASGLTFVDYAMGWYRQAPGKERELVADYYFQRWFYGLRRLCEGALHNFTRQCQEYRNLQMNSLKPEDTAVYYCNTDGPTVAYSEYYYWGQGTQVTVSS | low polyreactivity
QVQLVESGGGLVQAGGSLRLSCAASGLTFVDYTKGWYRQAPGNERELVAAIDWSGGSTYYADSVKGRFTISRDNAKNPVYLQMNSLKPEDTAVYYCNALRRFYSMDDYWGQGTQVTVSS | low polyreactivity
QVQLVESGGGLVQAGGSLRLSCAASGLTFVEYAMGWYRQAPGKEREFVAAIRSRGGSTYYADSVKGRFTISRDNAKNTVYLQMNSLKPEDTAVYYCTADGYFWGQGTQVTVSS | low polyreactivity
QVQLVESGGGLVQAGGSLRLSCAASGLTFVGYAMGWNRQAPGKERELVAAISGVGTTNYGDSVKGRFTISRDNAKNTVYLQMNSLKPEDTAVYYCAKAPYPVPYGLYDYWGQGTQVTVSS | low polyreactivity

Sequence | polyreactivity (PSR sort gate)
QVQLVESGGGLVQAGGSLRLSCAASGLTFVKNAMGWNRQAPGKERELVAAITVSGSRTYYADSVKGRFTISRDNAKNTVYLQMNSLKPEDTGVYYCNAYPYYLVRNMDSWGQGTLVTVSS | high polyreactivity
QVQLVESGGGLVQAGGSLRLSCAASGLTFVKNAMGWYRQAPGKERELVATISSGGSTNYADSVKGRFTISRDNAKNTVYLQMNSLKPEDTAVYYCNKDYTGVLLWIWWDRYDYWGQATQVTVSS | high polyreactivity
QVQLVESGGGLVQAGGSLRLSCAASGLTFVQNAMGWYRQAPGKERELVAAISSRGGSTYYADSVKGRFTISRDNAKNTVYLQMNSLKPEETAVYYCNTRSITKYDYWRRGYGYWGQGTQVTVSS | high polyreactivity
QVQLVESGGGLVQAGGSLRLSCAASGLTFVTNAMGWYRQAPGKERELVAGISWSDGSTYYADSVKGRFTISRDNAKNTVYLQMNSVKPEDSAVYYCNAGVDLHYGYITYGVYGYDYWGQGTQVTVSS | low polyreactivity
QVQLVESGGGLVQAGGSLRLSCAASGLTFVWYAMGWYRQAPGKDRELVAAITLSGGSTYYADSGKGRFTISRDNAKNTVYLQMNSLIPEDTAVYYCAADGTYRPEDYDYWGQGTQVTVSS | low polyreactivity
QVQLVESGGGLVQAGGSLRLSCAASGLTFVYNNMGWYRQAPGKERELVAAINWSGGRTYYADSVKGRFTISRDNAKNTVYLQMNSLKPEDTAVYYCAALYVPNTPTYKYDYWGQGTQVTVSS | low polyreactivity
QVQLVESGGGLVQAGGSLRLSCAASGLTFVYYAMGWYRQAPGKERELLAAISRSGGSTYYADSVKGRFTISRDNAKNTVYLQMNSLKPEDTAVYYCAAEATKWFGVVTMDYWGQGTQVTVSS | high polyreactivity
QVQLVESGGGLVQAGGSLRLSCAASGLTFVYYAMGWYRQAPGKERELVASITRGGSTNYADSVKGRFTISRDNAKNTVYLQMTSLKPEDTAVYYCAAGYGGWAWIHVSYGGDYWGQGTQVSVSS | low polyreactivity
QVQLVESGGGLVQAGGSLRLSCAASGLTFWANTMGWYRQAPGKERELVAAITWSGGSTYYADSVKGRFTISRDNAKNTVNLQMNSLKPEDTAVYYCAADEYFAAGYSYYYWGQGSQVTVSS | low polyreactivity
QVQLVESGGGLVQAGGSLRLSCAASGLTFWDYAMGWYRQAPGKETELVAAISNDDSTYADSVKGRFTISRDNAKNTVYLQMNSLKPEDTAVYYCAAQSYYTWPEMGYWGQGTQVTVSS | low polyreactivity
QVQLVESGGGLVQAGGSLRLSCAASGLTFWKYTMGWYRQAPGKERELVAAISISGTNTYYADSVKGRFTISRDNAKNTVYLQMNSLKPEDTAVYYCAAVRGYPPTNYYYWGQGTQVSVSS | high polyreactivity
QVQLVESGGGLVQAGGSLRLSCAASGLTFWKYTMGWYRQAPGKERELVAAISISGTNTYYADSVKGRFTISRDNAKNTVYLQMNSLKPEDTAVYYCAAVRGYPPTNYYYWGQGTQVTVSS | high polyreactivity
QVQLVESGGGLVQAGGSLRLSCAASGLTFWVYTMGWYRQAPGKERELVARITSRGASTYYADSVKGRFTISRDNAKNTVYLQMNSLKPEDTAVYYCATDRYRIYPDYDYWGQGTQVTVSS | high polyreactivity
QVQLVESGGGLVQAGGSLRLSCAASGLTFWYYAMGWYRQAPGKERELVAAISWSGGRTSYADSVKGRFTISRDNAKNTVYLQMNSLKPEDTAVYYCAADKDFRTGEFEYDYWGQGTQLTVSS | high polyreactivity
QVQLVESGGGLVQAGGSLRLSCAASGLTFYFYAMGWYIQAPGKERELVAAIDWGGGSTYYADSVKGRFTISRDYAKNTVYLQMNSLKPEDTAVYYCAARGYYYNYDVNYWGQGTQVTVSS | low polyreactivity
QVQLVESGGGLVQAGGSLRLSCAASGLTFYFYAMGWYRQAPGKERELVAAIDWGGGSTYYADSVKGRFTISRDNAKNTVYLQMNSLKPEDTAVYYCAARGYYYNYDVNYWGQGTQVTVSS | low polyreactivity
QVQLVESGGGLVQAGGSLRLSCAASGLTFYGNAMGWYRQAPGKERELVAAISSSGGTTYYADSVKGRFTISRDNAKNTVYLQMNSLKPEDTAVYYYWGQGTQVTVSS | low polyreactivity
QVQLVESGGGLVQAGGSLRLSCAASGLTFYGNAMGWYRQAPGKERELVAAISSSGGTTYYADSVKGRFTISRDNEKNTVYLQMNSLKPEDTAVYYCNTRNTYFYAGYDYWGQGTQVTVSS | low polyreactivity
QVQLVESGGGLVQAGGSLRLSCAASGLTFYGNAMGWYRQAPGKETELVADISLSGGRTFYADSVKGRFTISRDNAKNTVYLQMNSLKPEDTAVYYCAKTYTSGYHRRYDYWGQGTQVTVSS | low polyreactivity
QVQLVESGGGLVQAGGSLRLSCAASGLTFYGYGMGWYRPGPGKERELVASITSGGNTYYADSVKGRFTISRDNAKNNVYLQMYSLKPEDNAVSYCAVTAIALYYSSGYYWGQGTQVTVSS | low polyreactivity
QVQLVESGGGLVQAGGSLRLSCAASGLTFYGYTMGWSRQAPGKERELVAAISWSGGNTYYADSVKGRFTISRDNEKNTVYLQMNSLKPEDTAVYYCAAEHWTYDWVDYWGQGTQVTVSS | low polyreactivity
